Consider 1 substance from patent publication US20090123371A1.

The target in this assay is EphA2 receptor tyrosine kinase (human) (UniProt P29317). In words: cell-based or functional assay.

Take “DT390-ephrinA1 (from UniProt P00588 33-422)”: the cell proliferation assay, U-251 MG GBM cells came out at 15 nM.
